Experimental data as given in patent US20210386875.

Target: T1, [^125I]LS370
T1 chain: XYXDEVDGKGC

B1: Caspase-3 (Cal Biochem) (protein)
chain: SGISLDNSYKMDYPEMGLCIIINNKNFHKSTGMTSRSGTDVDAANLRETFRNLKYEVRNKNDLTREEIVELMRDVSKEDHSKRSSFVCVLLSHGEEGIIFGTNGPVDLKKITNFFRGDRCRSLTGKPKLFIIQACRGTELDCGIETDSGVDDDMACHKIPVEADFLYAYSTAPGYYSWRNSKDGSWFIQSLCAMLKQYADKLEFMHILTRVNRKVATEFESFSFDATFHAKKQIPCIVSMLTKELYFYH
hydrolysis by caspase-3 (radiochromatogram): [^125I]LS370 eluted at 19.5 min, and in the presence of caspase-3, the cleaved fragments eluted at 12.5 and 13 min
kcat (kinetic analysis of hydrolysis, radio-HPLC): 1.02 s⁻¹
